From the RNAGym collection of RNA variant scans (doi:10.1073/pnas.2313332121)

B1: TPR t1 (parent)
chain: GACCAAUCUGCCCUCAGAGCUCGAGAACAUCUUCGGAUGCAGAGGAGGCAGGCUUCGGUGGCGCGAUAGCGCCAACGUCCUCAACCUCCAAUGCAUCCCACCACAUGAUGAUGCCUGAAGAGCCUUGGUUUUUUG

Variants of: B1
Test: polymerase ribozyme fitness, log enrichment relative to wild type (log ratio); higher = more active; in vitro selection for triplet polymerase activity
In short: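 Both subunits of a heterodimeric triplet polymerase ribozyme were given their own mutant library, built by PCR and transcribed. Each library was annealed with a biotinylated primer, the partner subunit and triplets, incubated frozen at −7 °C, and its extended constructs gel-excised, captured on streptavidin beads and amplified by RT-PCR, all in one round done in triplicate. Fitness is the logarithm of genotype enrichment relative to wild-type enrichment, with replicates averaged by inverse-variance weighting. That logarithm is base 2, and Illumina-sequenced genotypes needed ≥10 input reads and ≥1 read per output.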

Row | Variant | polymerase ribozyme fitness (log ratio)
1 | GACCAAUCUGCCCUCAGAGCUCGAGAACAUCUUCGGAUGCAGAGGAGGCAGGCUUCGGUGGCGCGAUAGCGCCAACGUCCUCUACCUCCAAUGCAUCCCACCACAUGUUGAUGCCUGAAGAGCCUUGGUUUUUUG [A83U A108U] | -5.5
2 | GACCAAUCUGCACUCAGAGCUCGAGAACAUCUUCGGAUGCAGAGGAGGCAGGCUUCGGUGGAGCGAUAGCGCCAACGUCCUCAACCUCCAAUGCAUCCCACCACAUGAUGAAGCCUGAAGAGGCUUGGUUUUUUG [C12A C62A U112A C123G] | -1.09
3 | GACCAAUCUGCCCUCAGAGCUCGAGAACAUCUUCGGAUGCAGAGGAGGCAGGCUUCGGUGGCGCGAUAGCGCCAACGGCCUCAACCUCCAAUGCAUCCCACCACAUGAUGAUGCCUCAAGAGCCUUGGUUUUUUG [U78G G117C] | -4.47
4 | GACCAAUCUGCCCUCAGAGCUCGAGAACAUCUUCGGAGGCAGAGGAGGCGGGCUUCGGUGGCGCGAUAGCGCCAACGUCCCCAACCUCCAAUGCAUCCCACCACAUGAUGAUACCUGAAGAGCCUUGGUUUUUUG [U38G A50G U81C G113A] | -1.89
5 | GACCAAUCUGCCCUCAGAGAUCGAGAACAUCUUCGGAUGCAGAGGAGGCAGGCUUCGGUGGCGCGAUAGCGGCAACGUCCACAACCUCCAAUGCAUCCCACCACAUGAAGAUGCCUGCAGAACCUUGGUUUUUUG [C20A C72G U81A U109A A118C G122A] | -5.92
6 | GACCAAUCUGCCCUCAGAGCUCGAGAACAUCUUCGGAUGCAGAGGAGGCAGGCUUCGGUGGCGCCAUAGCGCCAACGUCCUCAACCUCCAAUGCAUCCCACCACAUGAUGAUGCCUGAAGAGCAUUGGUUUUUUG [G65C C124A] | -4.91
7 | GACCAAUCUGCCCUCAGAGCUCAAGAACAUCUUCGGAUGCAGAGGAGGCAGGCUUCGGUGGCGCGAUAUCGCCAACGUCCUCAACCUCCAAUGCAUCCCACCACAUGAUGAUGCUUGAAGAGGCUUGGUUUUUUG [G23A G69U C115U C123G] | -6.34
8 | GACCAAUCUGCCCUCAGAGCUCGAGAACAUCUUCGGAUGCAGAGGAGGCAGGCUUCGGUGGCGCGAUAGCGCCAACGUCCUCAACCUCCAAUGUAUCCCACCACAUGAUGAUGCCUCAAGAGCCUUGGUUUUUUG [C94U G117C] | -3.83
9 | GACCAUUCUGCCCUCAGAGCUCGAGAACUUCUUCGGAUGCAGAGGAGGCAGGCUUCGGUGGCGCGAUAGCGCCAACGUCCUCAACCUCCAAUGCAUCCCAACACAUGAUGAUGCCUGAACAGCCUUGGUUUUAUG [A6U A29U C101A G120C U133A] | -4.06
10 | GACCAAUCUGCCCUCAGAGCUCGAGAACAUCUUCGGAUGCAGAGGAGGCAGGCUUCGGUGGCGUGAUAGCGCCAACGUCCUCAACCUCCAAUGCAUCCCACCACAUGAUCAUGCCUGAAGAGCCUUGGUUUUUUG [C64U G110C] | -3.51
11 | GACCAAUCUACCCUCAGAGCUCGAGAACAUCUUCGGAUGCAGAGCAGGCAGGCUUGGGUGGCGCGAUAGCGUCAACGUCCUCAACCUCCAAUGCAUCCCACCACAUGAUGAUGCCUGAAGAGCCUUGGUUUUUUG [G10A G45C C56G C72U] | -2.53
12 | GACCAAUCUGCCCUCAGAGCUCGAGAACAUCUUCGGAUGCAGAGGAGGCAGGCUUCGGUGGCGCGAUAGCGCCAACGUCCUCAACCUCAAAUGCAUCCCACCACAUGAUCAUGCCUGAAGAGCCUUGGUUUUUUG [C89A G110C] | -5.43
13 | GACCAAACUGCCCUCAGAGCUCGAGAACAUCUUCGGAUGCAGAGGAGGCAGGCUUCGGUGACGCGAUAGCGCCAACGUCCUCAACCUCCAAUGCAUCCCACCACAUGAUGAGGCCUGAAGAGCCUUGGUUUUUUG [U7A G61A U112G] | 0.622
14 | GACCAAUCUGCCCUCAGAGCUCGAGAACAUCUUCGGAUGCAGAGGAGGCAGGCUUCGGUGACGCGAUAGCGCCAACGUCCUCAACCUCCAAUGCAUCCCACCACAUGAUGAUGCCUGAAUAGCCUUGGUUUUUUU [G61A G120U G135U] | -0.818
15 | GACCAAUCUGCCCUCAGAGCUCGAGAACAUCUUCGGAUGCAGAGGAGGCAGGCUUCGGUGGCGCGAUAGCGCUAACGUCCUCAACCUCCAAUGUAUCCCACCACAUGAUGAUGCCUGAAGAGCCUUGGAUUUUUG [C73U C94U U129A] | -1.17
16 | GCCCAAUCUGCCCUCAGAGCUCGAGAACAUCUUCGGAUGCAGAGGAGGCAGGCUUCGGUGGCGCGAUAGCGCCAAUGUCCUCAACCUCCAAUGCAUCCCACCACAUGAUGAUGCCUGAAGAGCCUAGGUUUUUUG [A2C C76U U126A] | -1.99
17 | GACCAAUCUGCCCUCAGAGCUUGAGGACAUCUUCGGAUGCAGAGGAGGCAGGCUUCGGUGGCGCGAUAGCGCCAACGUCCUCAACCUCCAAUGCAUCCCACCACAUGAUGAUGCCUGAGGAAACUUGGUUUUUUG [C22U A26G A119G G122A C123A] | -2.69
18 | GACCGAUCUGCCUUCAGAGCUCGAGAACAUCUUCGGAUGCAGAGGAGGCAGGCUUCGGUGGCGCGAUAGUGCCAACGUCCUCAACCUCCAAUGGAUCCCACCACAUGAUGAUGCCUGAAGAGCCUUGGUUUUUUG [A5G C13U C70U C94G] | -1.73
19 | GACCAAUCUGCCCUCAGAGCUCGAGAACAUCUUCGGAUGAAGAGGAGGCAGGCUUCGGUGGCGCGAUAGCGCCAACGUCCUCAACCUCCAAUGGAUUCCACCACAUGAUGAUUCCUGAAGAGCCUUGGUUUUUUG [C40A C94G C97U G113U] | -7.66
20 | GACCAAUCUGCCCUCAGAGCUCGAGAACAUCUUCGGAUGCAGAGGAGGCUGGCUUCGGUGGCGCGAUAGCGCCAACGUCCUCAACCUCCAAUGCAUCCCACCACAUGAUGAUGCCUGAAGAGCGUUGGUUUUUUG [A50U C124G] | -0.185
21 | GACCAAUCUGCCCUCAGAGCUCGAGAACAUCUUCGGAUGCAGGGGAGGCGGGCUUCGGUAGCGCGAUAGCGCCAACGUCCUCAACCUCCAAUGCAUCCCACCACAUGAUGAUGCCUGAAGAGCCUUGGUUUUUUG [A43G A50G G60A] | -4.16
